This is an account of results in article PMC7954794, “Protein context shapes the specificity of SH3 domain-mediated interactions in vivo” (Nature Communications, 2021).

The labels stand for the following.
B1: YCR002C (protein, UniProt P25342 1-322, looked up)
Cell division control protein …: MDPLSSVQPASYVGFDTITNQIEHRLLKKGFQFNIMVVGQSGLGKSTLINTLFASHLIDSATGDDISALPVTKTTEMKISTHTLVEDRVRLNINVIDTPGFGDFIDNSKAWEPIVKYIKEQHSQYLRKELTAQRERFITDTRVHAILYFLQPNGKELSRLDVEALKRLTEIANVIPVIGKSDTLTLDERTEFRELIQNEFEKYNFKIYPYDSEELTDEELELNRSVRSIIPFAVVGSENEIEINGETFRGRKTRWSAINVEDINQCDFVYLREFLIRTHLQDLIETTSYIHYEGFRARQLIALKENANSRSSAHMSSNAIQR
B2: YKL051W (protein, UniProt P35735 1-353, looked up)
Protein SFK1: MIQFKSPGNWLFIVPWIAFIPWYGMLIAMLICWASQGHPIYWFMHSEQFPVYISDIGATNLRPLFISCAGWQGLGYVITVALEFFQRSGYLPFQLKKKDPSISDSTSYAEKLHSGKYLMPPYYTKDERNLIFAAFVLGSIGELALLFSSIFSTALYHRVHIAMVSVFVVFMFLSTCCLIAEYFLMGRHYASVHPLASPHFNPQSSEKSFNQDYNTVDELPWYKWKGHVWNKFTISATLKVIWLTLAVVWAICFGAINDRSKSACFEWLLAFWFGIIFMILSADFYLGGRYRQSRYFNHVESFSGYYKYDKALGLYHSEDVLPSDDNAGVIATETASSNIYNNSSSNESIQVVV
B3: YDR379W (protein, UniProt Q06407 1-1009, looked up)
Rho-type GTPase-activating …: MSADPINDQSSLCVRCNKSIASSQVYELESKKWHDQCFTCYKCDKKLNADSDFLVLDIGTLICYDCSDKCTNCGDKIDDTAIILPSSNEAYCSNCFRCCRCSNRIKNLKYAKTKRGLCCMDCHEKLLRKKQLLLENQTKNSSKEDFPIKLPERSVKRPLSPTRINGKSDVSTNNTAISKNLVSSNEDQQLTPQVLVSQERDESSLNDNNDNDNSKDREETSSHARTVSIDDILNSTLEHDSNSIEEQSLVDNEDYINKMGEDVTYRLLKPQRANRDSIVVKDPRIPNSNSNANRFFSIYDKEETDKDDTDNKENEIIVNTPRNSTDKITSPLNSPMAVQMNEEVEPPHGLALTLSEATKENNKSSQGIQTSTSKSMNHVSPITRTDTVEMKTSTSSSTLRLSDNGSFSRPQTADNLLPHKKVAPSPNKKLSRSFSLKSKNFVHNLKSKTSEMLDPKHPHHSTSIQESDTHSGWGVSSTHTNIRKSKAKKNPVSRGQSDSTIYNTLPQHGNFTVPEFNHKKAQSSLGSISKKQNSNDTATNRRINGSFTSSSSGHHIAMFRTPPLESGPLFKRPSLSSESAHHRSSSLQTSRSTNALLEDDSTKVDATDESATSLEKDFYFTELTLRKLKLDVRELEGTKKKLLQDVENLRLAKERLLNDVDNLTREKDKQSASSRESLEQKENIATSITVKSPSSNSDRKGSISNASPKPRFWKIFSSAKDHQVGDLESQQRSPNSSSGGTTNIAQKEISSPKLIRVHDELPSPGKVPLSPSPKRLDYTPDGSHLYGSSLQARCAYEKSTVPIIIRCCIDRIEKDDIGLNMEGLYRKSGSQTLVEEIENEFAQNNSLHSDTLSPKLNALLNQDIHAVASVLKRYLRKLPDPVLSFSIYDALIDLVRNNQLIERLPLNNDKFLDSPQKVTIYEMVLKSLLEIFKILPVEHQEVLKVLAAHIGKVRRCSERNLMNLHNLSLVFAPSLIHDFDGEKDIVDMKERNYIVEFILGNYRDIFKQA
B4: YBL085W (protein, UniProt P38041 1-980, looked up)
BEM1-interacting protein 1: MSLEGNTLGKGAKSFPLYIAVNQYSKRMEDELNMKPGDKIKVITDDGEYNDGWYYGRNLRTKEEGLYPAVFTKRIAIEKPENLHKSPTQESGNSGVKYGNLNDSASNIGKVSSHQQENRYTSLKSTMSDIDKALEELRSGSVEQEVSKSPTRVPEVSTPQLQDEQTLIQEKTRNEENTTHDSLFSSTADLNLSSESLKNISKSNISTKSLEPSSESVRQLDLKMAKSWSPEEVTDYFSLVGFDQSTCNKFKEHQVSGKILLELELEHLKELEINSFGIRFQIFKEIRNIKSAIDSSSNKLDADYSTFAFENQAAQLMPAATVNRDEIQQQISSKCNKLSSESSDRKSSSVTTELQRPSSVVVNPNFKLHDPAEQILDMTEVPNLFADKDIFESPGRAPKPPSYPSPVQPPQSPSFNNRYTNNNARFPPQTTYPPKNKNPTVYSNGLIPNSSTSSDNSTGKFKFPAMNGHDSNSRKTTLTSATIPSINTVNTDESLPAISNISSNATSHHPNRNSVVYNNHKRTESGSSFVDLFNRISMLSPVKSSFDEEETKQPSKASRAVFDSARRKSSYGHSRDASLSEMKKHRRNSSILSFFSSKSQSNPTSPTKQTFTIDPAKMTSHSRSQSNSYSHARSQSYSHSRKHSLVTSPLKTSLSPINSKSNIALAHSETPTSSNNKEAVSQPSEGKHKHKHKHKSKHKHKNSSSKDGSSEEKSKKKLFSSTKESFVGSKEFKRSPSELTQKSTKSILPRSNAKKQQTSAFTEGIRSITAKESMQTADCSGWMSKKGTGAMGTWKQRFFTLHGTRLSYFTNTNDEKERGLIDITAHRVLPASDDDRLISLYAASLGKGKYCFKLVPPQPGSKKGLTFTEPRVHYFAVENKSEMKAWLSAIIKATIDIDTSVPVISSYATPTIPLSKAQTLLEEARLQTQLRDAEEEEGRDQFGWDDTQNKRNSNYPIEQDQFETSDYLESSAFEYPGGRL
B5: YBR200W (protein, UniProt P29366 1-551, looked up)
Bud emergence protein 1: MLKNFKLSKRDSNGSKGRITSADISTPSHDNGSVIKHIKTVPVRYLSSSSTPVKSQRDSSPKNRHNSKDITSPEKVIKAKYSYQAQTSKELSFMEGEFFYVSGDEKDWYKASNPSTGKEGVVPKTYFEVFDRTKPSSVNGSNSSSRKVTNDSLNMGSLYAIVLYDFKAEKADELTTYVGENLFICAHHNCEWFIAKPIGRLGGPGLVPVGFVSIIDIATGYATGNDVIEDIKSVNLPTVQEWKSNIARYKASNISLGSVEQQQQQSITKPQNKSAKLVDGELLVKASVESFGLEDEKYWFLVCCELSNGKTRQLKRYYQDFYDLQVQLLDAFPAEAGKLRDAGGQWSKRIMPYIPGPVPYVTNSITKKRKEDLNIYVADLVNLPDYISRSEMVHSLFVVLNNGFDREFERDENQNNIKTLQENDTATFATASQTSNFASTNQDNTLTGEDLKLNKKLSDLSLSGSKQAPAQSTSGLKTTKIKFYYKDDIFALMLKGDTTYKELRSKIAPRIDTDNFKLQTKLFDGSGEEIKTDSQVSNIIQAKLKISVHDI
B6: YAL041W (protein, UniProt P11433 1-854, looked up)
Cell division control protein …: MAIQTRFASGTSLSDLKPKPSATSISIPMQNVMNKPVTEQDSLFHICANIRKRLEVLPQLKPFLQLAYQSSEVLSERQSLLLSQKQHQELLKSNGANRDSSDLAPTLRSSSISTATSLMSMEGISYTNSNPSATPNMEDTLLTFSMGILPITMDCDPVTQLSQLFQQGAPLCILFNSVKPQFKLPVIASDDLKVCKKSIYDFILGCKKHFAFNDEELFTISDVFANSTSQLVKVLEVVETLMNSSPTIFPSKSKTQQIMNAENQHRHQPQQSSKKHNEYVKIIKEFVATERKYVHDLEILDKYRQQLLDSNLITSEELYMLFPNLGDAIDFQRRFLISLEINALVEPSKQRIGALFMHSKHFFKLYEPWSIGQNAAIEFLSSTLHKMRVDESQRFIINNKLELQSFLYKPVQRLCRYPLLVKELLAESSDDNNTKELEAALDISKNIARSINENQRRTENHQVVKKLYGRVVNWKGYRISKFGELLYFDKVFISTTNSSSEPEREFEVYLFEKIIILFSEVVTKKSASSLILKKKSSTSASISASNITDNNGSPHHSYHKRHSNSSSSNNIHLSSSSAAAIIHSSTNSSDNNSNNSSSSSLFKLSANEPKLDLRGRIMIMNLNQIIPQNNRSLNITWESIKEQGNFLLKFKNEETRDNWSSCLQQLIHDLKNEQFKARHHSSTSTTSSTAKSSSMMSPTTTMNTPNHHNSRQTHDSMASFSSSHMKRVSDVLPKRRTTSSSFESEIKSISENFKNSIPESSILFRISYNNNSNNTSSSEIFTLLVEKVWNFDDLIMAINSKISNTHNNNISPITKIKYQDEDGDFVVLGSDEDWNVAKEMLAENNEKFLNIRLY

In the first assay the test system is BEM1-2. Briefly: DHFR-PCA on solid medium, bait BEM1-2 (Fig. 1B). The format is cell-based, Saccharomyces cerevisiae. The settings on record: bait BEM1-2, label = prey; 2-8 replicates. The text has this: (§1) Supplement 41467_2021_21873_MOESM8_ESM.xlsx, sheet "Fig1B" | column: medsize; medrep; Ratio; Score
Regarding B1, the “medrep (log2 median colony size normalized to plate background, PCA score)” value worked out at 3.007.

With B2, the “medrep (log2 median colony size normalized to plate background, PCA score)” value was 1.764.

B3: the “medrep (log2 median colony size normalized to plate background, PCA score)” value was 2.957.

As to B4, the “medrep (log2 median colony size normalized to plate background, PCA score)” value is listed as 2.78.

In the case of B5, the “medrep (log2 median colony size normalized to plate background, PCA score)” value is listed as 1.887.

Turning to B6, the “medrep (log2 median colony size normalized to plate background, PCA score)” value is 4.862.

Staying with this assay, now noted: bait BEM1-2, label = prey; only significant differences showed; PPIs completely lost have a ratio of 0.1 and the gained PPIs 2.5.
Turning to B1, the “Ratio (SH3-deleted/WT medrep)” value is reported as 0.1.

As to B2, the “Ratio (SH3-deleted/WT medrep)” value is 0.482.

Turning to B3, the “Ratio (SH3-deleted/WT medrep)” value is listed as 0.1.

Regarding B4, the “Ratio (SH3-deleted/WT medrep)” value turned out to be 0.1.

For B5, the “Ratio (SH3-deleted/WT medrep)” value came out at 0.4478.

The next assay relates to BBC1. Put plainly: DHFR-PCA on solid medium, bait BBC1 (Fig. 1B). To be noted: bait BBC1, label = prey; 2-4 replicates. The format is cell-based, Saccharomyces cerevisiae.
Description: as §1
With B2, the “medrep (log2 median colony size normalized to plate background, PCA score)” value was 4.283.

For a further assay, the system named is BEM1-1. Briefly: DHFR-PCA on solid medium, bait BEM1-1 (Fig. 1B). The format is cell-based, Saccharomyces cerevisiae. The settings on record: bait BEM1-1, label = prey; 2-8 replicates.
Description: as §1
For the molecule B1, the “medrep (log2 median colony size normalized to plate background, PCA score)” value turned out to be 3.007.

Consider B2, for which the “medrep (log2 median colony size normalized to plate background, PCA score)” value is reported as 3.661.

As to B3, the “medrep (log2 median colony size normalized to plate background, PCA score)” value is 2.957.

As for B4, the “medrep (log2 median colony size normalized to plate background, PCA score)” value was 1.5623.

For B5, the “medrep (log2 median colony size normalized to plate background, PCA score)” value is 4.2138.

For the molecule B6, the “medrep (log2 median colony size normalized to plate background, PCA score)” value is 4.862.

The same assay, now with this note: bait BEM1-1, label = prey; only significant differences showed; PPIs completely lost have a ratio of 0.1 and the gained PPIs 2.5.
Consider B2, for which the “Ratio (SH3-deleted/WT medrep)” value is 0.1.

As for B4, the “Ratio (SH3-deleted/WT medrep)” value is listed as 0.5621.

Another assay relates to BOI2. Put plainly: DHFR-PCA on solid medium, bait BOI2 (Fig. 1B). The format is cell-based, Saccharomyces cerevisiae. To be noted: bait BOI2, label = prey; 3-8 replicates.
Description: as §1
As for B1, the “medrep (log2 median colony size normalized to plate background, PCA score)” value was 1.509.

In the case of B2, the “medrep (log2 median colony size normalized to plate background, PCA score)” value is on record as 3.168.

With B3, the “medrep (log2 median colony size normalized to plate background, PCA score)” value was 2.382.

Regarding B4, the “medrep (log2 median colony size normalized to plate background, PCA score)” value worked out at 3.465.

On to B5, for which the “medrep (log2 median colony size normalized to plate background, PCA score)” value is 4.509.

For the molecule B6, the “medrep (log2 median colony size normalized to plate background, PCA score)” value is given as 3.947.

Another assay has as its system BOI1. Briefly: DHFR-PCA on solid medium, bait BOI1 (Fig. 1B). Type of assay: cell-based, Saccharomyces cerevisiae. To be noted: bait BOI1, label = prey; 3-8 replicates.
Description: as §1
B1: the “medrep (log2 median colony size normalized to plate background, PCA score)” value is on record as 1.419.

On to B2, for which the “medrep (log2 median colony size normalized to plate background, PCA score)” value came out at 2.409.

As for B3, the “medrep (log2 median colony size normalized to plate background, PCA score)” value is on record as 1.407.

With B4, the “medrep (log2 median colony size normalized to plate background, PCA score)” value was determined as 1.7279.

With B5, the “medrep (log2 median colony size normalized to plate background, PCA score)” value is on record as 3.166.

Regarding B6, the “medrep (log2 median colony size normalized to plate background, PCA score)” value is recorded as 2.673.

The assay is the same for the next values; noted with them: bait BOI1, label = prey; only significant differences showed; PPIs completely lost have a ratio of 0.1 and the gained PPIs 2.5.
In the case of B1, the “Ratio (SH3-deleted/WT medrep)” value is on record as 0.1.

On to B2, for which the “Ratio (SH3-deleted/WT medrep)” value came to 1.668.

As for B3, the “Ratio (SH3-deleted/WT medrep)” value turned out to be 2.5.

The test system of another assay is ABP1. Put plainly: DHFR-PCA on solid medium, bait ABP1 (Fig. 1B). Type of assay: cell-based, Saccharomyces cerevisiae. The settings on record: bait ABP1, label = prey; 2-4 replicates.
Description: as §1
On to B1, for which the “medrep (log2 median colony size normalized to plate background, PCA score)” value came out at 2.496.

Take B5: the “medrep (log2 median colony size normalized to plate background, PCA score)” value was 1.73.

The same assay, now with this note: bait ABP1, label = prey; only significant differences showed; PPIs completely lost have a ratio of 0.1 and the gained PPIs 2.5.
Take B5: the “Ratio (SH3-deleted/WT medrep)” value was 2.5.
